{
  "source": "patent US20190062427A1",
  "binders": {"B1": {"name": "anti-Siglec-9 antibody 6D8 (antibody, IgG2b, V domains shown, part only)", "VH": "VQLQQSGAELVKPGASVKLSCKASGYTFTSYWMHWVKQRPGQGLEWIGEIDPSDSYTYYNQKFKGKATLTVDKSSSTAYMQLSSLTSEDSAVYYCAAYYSNYVRAYWGQGTLVTVSA", "VL": "DIQKPQSPFYMCVSGGETISISSHTTRGIYWYKGGSAEKPEKPFKLEIYCARNGEGGAPSRFSGRGSGTDFSLTINRGESEDCAEYYCAQFYQFPWTFGGGTKLEIK"}},
  "key": {"[1]": {"target": "Siglec-9-Fc (R&D Systems, catalog number 1139-SL-050) (human) (UniProt Q9Y336)", "sequence (Q9Y336 18-348 limits assumed)": "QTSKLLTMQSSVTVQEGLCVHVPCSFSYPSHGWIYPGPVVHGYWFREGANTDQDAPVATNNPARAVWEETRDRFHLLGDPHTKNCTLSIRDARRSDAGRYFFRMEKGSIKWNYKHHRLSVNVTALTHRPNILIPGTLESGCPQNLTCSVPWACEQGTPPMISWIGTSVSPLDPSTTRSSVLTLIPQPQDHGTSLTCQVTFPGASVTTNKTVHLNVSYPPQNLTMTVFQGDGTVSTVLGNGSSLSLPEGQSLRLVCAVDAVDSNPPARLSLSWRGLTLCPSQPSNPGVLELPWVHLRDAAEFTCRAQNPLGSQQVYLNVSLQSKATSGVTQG", "assay": "FACS ligand competition: 25 ug/ml mAb pre-coupled with 25 ug/ml Siglec-9-Fc, binding to sialic acid ligands on U937 cells, anti-human IgG-PE"}, "[2]": {"target": "human Siglec-9 expressed on human cells (human) (UniProt Q9Y336)", "sequence (Q9Y336 18-463)": "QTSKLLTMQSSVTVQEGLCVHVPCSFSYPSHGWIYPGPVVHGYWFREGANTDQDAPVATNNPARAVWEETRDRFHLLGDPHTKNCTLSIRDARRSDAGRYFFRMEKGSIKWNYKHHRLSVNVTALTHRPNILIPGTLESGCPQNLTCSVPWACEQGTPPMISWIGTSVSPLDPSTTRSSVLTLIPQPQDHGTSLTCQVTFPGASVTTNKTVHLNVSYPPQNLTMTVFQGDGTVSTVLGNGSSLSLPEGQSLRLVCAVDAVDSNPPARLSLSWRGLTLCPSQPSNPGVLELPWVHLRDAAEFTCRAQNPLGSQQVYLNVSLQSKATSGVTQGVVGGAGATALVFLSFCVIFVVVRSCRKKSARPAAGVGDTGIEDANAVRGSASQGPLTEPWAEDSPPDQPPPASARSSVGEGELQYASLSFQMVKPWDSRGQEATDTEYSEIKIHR", "assay": "flow cytometry on human primary monocytes, 10 ug/ml mAb, PE secondary"}, "[3]": {"target": "Histidine-tagged human Siglec-9 (NovoProtein) (human) (UniProt Q9Y336)", "sequence (Q9Y336 18-348 limits assumed)": "as the sequence (Q9Y336 18-348 limits assumed) above", "assay": "SPR Biacore T200, 25 C, 25 nM mAb captured on anti-mouse IgG CM5 chip, His-tagged Siglec-9 200 nM as analyte, single-concentration 1:1 fit"}, "[4]": {"target": "human Siglec-9 expressed on human cells (human) (UniProt Q9Y336)", "assay": "cell-based or functional assay"}, "[5]": {"target": "human Siglec-9 expressed on human cells (human) (UniProt Q9Y336)", "assay": "flow cytometry on human primary dendritic cells, 10 ug/ml mAb, PE secondary"}, "[6]": {"target": "human Siglec-9 expressed on human cells (human) (UniProt Q9Y336)", "assay": "flow cytometry on human primary macrophages, 10 ug/ml mAb, PE secondary"}},
  "data": [
    {"binder": "B1", "values": [
      {"measurement": "Percent Siglec-9-Fc Binding", "setting": "[1]", "value": 97.8, "unit": "%"},
      {"measurement": "% Positive", "setting": "[2]", "value": 29.6, "unit": "%"},
      {"measurement": "MFI", "setting": "[2]", "value": 198},
      {"measurement": "Kd", "setting": "[3]", "value": 6.7, "unit": "nM"},
      {"measurement": "Percent Siglec-9 Surface Expression, DCs (% Siglec-9)", "setting": "[4]", "value": 60.2, "unit": "%"},
      {"measurement": "Percent Siglec-9 Surface Expression, Macrophages (% Siglec-9)", "setting": "[4]", "value": 21.3, "unit": "%"},
      {"measurement": "Percent Siglec-9 Surface Expression, Microglia (% Siglec-9)", "setting": "[4]", "value": 45.4, "unit": "%"},
      {"measurement": "Percent Siglec-9 Surface Expression, Monocytes (% Siglec-9)", "setting": "[4]", "value": 42.2, "unit": "%"},
      {"measurement": "Percent Siglec-9 Surface Expression, THP-1 cells (% Siglec-9)", "setting": "[4]", "value": 62.6, "unit": "%"},
      {"measurement": "% Positive", "setting": "[5]", "value": 27.6, "unit": "%"},
      {"measurement": "MFI", "setting": "[5]", "value": 197},
      {"measurement": "% Positive", "setting": "[6]", "value": 93.5, "unit": "%"},
      {"measurement": "MFI", "setting": "[6]", "value": 473}
    ]}
  ]
}
